Values belong to the molecule of their own block, whether it stands above or below them.
Experiments:
[1] = target: recombinant factor X (rFX), expressed in CHO cells from human factor X cDNA (human) (UniProt P00742); test: cell-based or functional assay
[2] = target: T1, recombinant FX deletion mutant having the furin cleavage site Arg-Val-Thr-Arg/Ile (rFXΔ^RVTR/I)
T1 chain: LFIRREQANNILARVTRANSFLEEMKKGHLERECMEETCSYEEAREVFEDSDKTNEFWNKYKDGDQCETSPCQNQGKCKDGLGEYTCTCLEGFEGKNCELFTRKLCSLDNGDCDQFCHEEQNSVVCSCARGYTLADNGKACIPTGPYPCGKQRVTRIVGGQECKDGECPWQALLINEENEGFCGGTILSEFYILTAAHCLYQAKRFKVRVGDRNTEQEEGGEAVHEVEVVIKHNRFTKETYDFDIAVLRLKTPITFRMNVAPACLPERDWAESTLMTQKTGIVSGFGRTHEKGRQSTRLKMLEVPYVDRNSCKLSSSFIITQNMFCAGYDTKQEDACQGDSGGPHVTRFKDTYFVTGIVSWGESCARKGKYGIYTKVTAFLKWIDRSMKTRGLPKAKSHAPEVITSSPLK

functional portion of rFX (%), incubation 0 days [1]: 61%
functional portion of rFX (%), incubation 1 day [1]: 73%
functional portion of rFX (%), incubation 2 days [1]: 79%
functional portion of rFX (%), incubation 3 days [1]: 81%
functional portion of rFX (%), incubation 4 days [1]: 86%
Molecule: rfurin ÿTM6xHis (r-furin derivative, as CHO cell culture supernatant; patent application EP 0 775 750) (from UniProt P09958 108-707) (enzyme)

B1: r-furinÿCys-spacer-10xHis (purified r-furin derivative; patent application EP-0 775 750-A2) (protein)
chain: DVYQEPTDPKFPQQWYLSGVTQRDLNVKAAWAQGYTGHGIVVSILDDGIEKNHPDLAGNYDPGASFDVNDQDPDPQPRYTQMNDNRHGTRCAGEVAAVANNGVCGVGVAYNARIGGVRMLDGEVTDAVEARSLGLNPNHIHIYSASWGPEDDGKTVDGPARLAEEAFFRGVSQGRGGLGSIFVWASGNGGREHDSCNCDGYTNSIYTLSISSATQFGNVPWYSEACSSTLATTYSSGNQNEKQIVTTDLRQKCTESHTGTSASAPLAAGIIALTLEANKNLTWRDMQHLVVQTSKPAHLNANDWATNGVGRKVSHSYGYGLLDAGAMVALAQNWTTVAPQRKCIIDILTEPKDIGKRLEVRKTVTACLGEPNHITRLEHAQARLTLSYNRRGDLAIHLVSPMGTRSTLLAARPHDYSADGFNDWAFMTTHSWDEDPSGEWVLEIENTSEANNYGTLTKFTLVLYGTAPEG
processing/activation of rFXΔ^RVTR/I (Western blot; 6, 24, 48, 72 hours at 37° C.) [2]: In the presence of the r-furin derivative (FIG. 10A), a 35 kD protein band appears already after 6 hours of incubation (lane 5), which corresponds to the form of the FX heavy chain
